Assay results: US6548743B1, “Transgenic plants expressing a dual-specificity MAPK phosphatase and uses thereof” (The General Hospital Corporation, priority 1998, dated 2003)

Columns and labels:
tobacco cells = assay: Auxin effect on division and differentiation of transfected tobacco cells; type: cell-based
Description: To examine the effects of auxin on cell division and differentiation of cells expressing MKP-1 SEQ ID NO.:10; tobacco cells transfected with the MKP-1 transgene expressed under the control of the 35S CaMV promoter were cultured on a medium containing 0.1 μM or 1 μM NAA. […] Since prevention of MAPK activation by MKP-1 can render plant cells less sensitive to auxin, activation of some MAPK pathways may be crucial in auxin stimulated plant cell proliferation.

[1] = test system: NPK1-dependent activation of a MAPK and repression of the GH3 promoter; assay: Transient expression in maize protoplasts: reversal of NPK1 effects; type: cell-based; conditions: transfected maize protoplasts, 35S CaMV promoter
Text: A phosphatase domain containing a fragment of the mouse MKP-1 (amino acids 1-314 (SEQ ID NO.: 11); Sun et al., Cell 75: 487-493, 1993) was cloned into the plant expression vector pART7. This expression plasmid was then used for transient expression of MKP-1 in maize protoplasts.

Arabidopsis plants = assay: Phenotype of transgenic Arabidopsis plants expressing the transgene (35S CaMV promoter); type: in vivo
Text: (§1) Next, we examined the phenotypic modifications of transgenic plants expressing MKP-1 under the control of the 35S CaMV promoter. For these experiments, we introduced the MKP-1 construct into tobacco cultivar SR1 and Arabidopsis plants according to standard Agrobacterium-mediated gene transfer methods. Initiation of flowering in the day-neutral tobacco cultivar SR1 is mainly dependent on the number of leaves found on the plants. These tobacco plants, in general, remain in the vegetative state until approximately twenty leaves have developed. […] Some transformants even initiated flowers after only a few small leaves had developed (FIG. 4). Despite early flowering, these plants were fertile. […] Similar results were obtained when MKP-1 was expressed in Arabidopsis plants.

tobacco cultivar SR1 = assay: Phenotype of transgenic tobacco SR1 plants expressing the transgene (35S CaMV promoter); type: in vivo
Text: as §1

B1: MKP-1: dual-specificity MAPK phosphatase; fragment of mouse MKP-1 (amino acids 1-314) expressed from a transgene under the 35S CaMV promoter (protein, UniProt P28563 1-314, looked up, fragment)
chain: MVMEVGILDAGGLRALLREGAAQCLLLDCRSFFAFNAGHIAGSVNVRFSTIVRRRAKGAMGLEHIVPNAELRGRLLAGAYHAVVLLDERSASLDGAKRDGTLALAAGALCREARSTQVFFLQGGYEAFSASCPELCSKQSTPTGLSLPLSTSVPDSAESGCSSCSTPLYDQGGPVEILSFLYLGSAYHASRKDMLDALGITALINVSANCPNHFEGHYQYKSIPVEDNHKADISSWFNEAIDFIDSIKDAGGRVFVHCQAGISRSATICLAYLMRTNRVKLDEAFEFVKQRRSIISPNFSFMGQLLQFESQVLA
**Q.** How did the “cell division under low auxin” value (tobacco cells; 0.1 μM NAA) turn out when B1 was run?
**A.** failed to divide

**Q.** And the “cell phenotype under high auxin” value (tobacco cells; 1 μM NAA)?
**A.** remained green and formed tight calli with differentiated shoot primordia

**Q.** What about the “level of auxin required to initiate cell division” value (tobacco cells; constant concentration of cytokinin, compared with cells transfected with vector alone) of the same molecule?
**A.** 1 μM NAA

**Q.** And the “effect on NPK1-dependent activation of a MAPK” value [1]?
**A.** complete elimination

**Q.** And the “effect on repression of the auxin-inducibility of the GH3 promoter by NPK1” value [1]?
**A.** complete elimination

**Q.** And the “fertility of reproductive organs” value (Arabidopsis plants; in vivo)?
**A.** fertile

**Q.** What about the inflorescence initiation (Arabidopsis plants; progenies of several Arabidopsis lines) of the same molecule?
**A.** initiate the inflorescence stem without producing any rosette leaves

**Q.** What about the “number of leaves before flowering compared to wild type” value (tobacco cultivar SR1; MKP-1 transformed SR1 tobacco, FIG. 2) of the same molecule?
**A.** about half

**Q.** And the fertility (tobacco cultivar SR1; early flowering transformants)?
**A.** fertile

**Q.** What about the “reduction in the vegetative life span of the plant” value (tobacco cultivar SR1; in vivo) of the same molecule?
**A.** ~50%

**Q.** What about the initiation of flowering (tobacco cultivar SR1; primary transgenic SR1 lines vs control plants) of the same molecule?
**A.** initiated flowering earlier than control plants

**Q.** What about the “flower and seed production” value (tobacco cultivar SR1; transgenic vs wild-type plants) of the same molecule?
**A.** more flowers and seeds than the wild-type plants
